We go through 2 substances from article PMC11071394.

Values joined by “and” are separate entries in the source; they are usually repeats but may differ in a detail not shown here. Equal entries are not always repeated.

This assay deals with Sg Enc, Family 2B encapsulin shell protein from Streptomyces griseus (expressed in S. coelicolor A3(2)) (Streptomyces griseus). Put plainly: cryo-EM structure.

As usually defined, the stoichiometry N is a count of units in the complex or per binding partner. “Sg Enc, Family 2B encapsulin shell protein from Streptomyces griseus (expressed in S. coelicolor A3(2)) (natural protein)” registered a stoichiometry N of 60 protomers.

Regarding “Sg 2-methylisoborneol synthase (2-MIBS) from Streptomyces griseus, co-expressed with Sg Enc (enzyme)”, the 2-MIBS dimers per shell (dimers per shell) is 3 and 4.
